The text below walks through data of patent US20250115664A1.

In assay [1] the target is cynomolgus TIM3 on cells (transfected CHO cells, activated cyno T cells, cyno spleen) (cynomolgus). Nature of the assay: flow cytometry, cyno TIM3-transfected CHO cells (Geo-MFI); fit value of a flat negative-control curve, far beyond the tested range; unit from the axis label. (In general: In flow cytometry, cells or beads pass a laser one at a time.)
The target of assay [2] is human TIM3 on cells (transfected CHO cells, activated human T cells, Th1 cells, TILs) (human) (UniProt Q8TDQ0). Nature of the assay: flow cytometry, human TIM3-transfected CHO cells (Geo-MFI); fit value of a flat negative-control curve, far beyond the tested range; unit from the axis label.
Assay [3] has as its target mouse TIM3 on cells (transfected cells, activated mouse T cells) (mouse) (UniProt Q8VIM0). Put plainly: binding to activated mouse T cells.
The target is the same in assay [4]. Nature of the assay: binding to activated mouse T cells, against TIM3.18 on human TIM3.

Sequence of cynomolgus TIM3 on cells (transfected CHO cells, activated cyno T cells, cyno spleen) (cynomolgus) (chain, as listed by the source limits assumed): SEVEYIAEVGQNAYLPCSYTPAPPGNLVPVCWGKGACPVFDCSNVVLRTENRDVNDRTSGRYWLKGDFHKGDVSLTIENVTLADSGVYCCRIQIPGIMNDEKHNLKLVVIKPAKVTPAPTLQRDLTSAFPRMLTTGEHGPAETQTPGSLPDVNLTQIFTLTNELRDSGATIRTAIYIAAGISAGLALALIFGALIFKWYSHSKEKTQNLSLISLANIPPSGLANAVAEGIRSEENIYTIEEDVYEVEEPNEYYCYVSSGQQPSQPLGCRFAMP
Sequence of mouse TIM3 on cells (transfected cells, activated mouse T cells) (mouse) (Q8VIM0 20-281): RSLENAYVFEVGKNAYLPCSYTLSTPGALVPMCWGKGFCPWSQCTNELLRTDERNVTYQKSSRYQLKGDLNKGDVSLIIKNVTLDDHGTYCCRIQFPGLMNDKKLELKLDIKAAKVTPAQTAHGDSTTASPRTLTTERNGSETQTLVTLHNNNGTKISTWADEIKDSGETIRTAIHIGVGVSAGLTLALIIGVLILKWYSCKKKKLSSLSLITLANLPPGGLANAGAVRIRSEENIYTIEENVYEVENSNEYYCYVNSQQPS

One may read the EC50 as the midpoint of the concentration-response curve. Higher therefore signals lower potency in that assay. Take hIgG2 (antibody): the values for the EC50 in assay [1] and in assay [2] were 44.5 mg/mL and 42.3 mg/mL, respectively.
In the same order, the values of hIgG1 (antibody) are 75.7 mg/mL and 39.7 mg/mL.
In assay [3], RMT3-23 rat anti-mouse TIM3 antibody gave an EC50 of 1.7 nM. In assay [4], this substance yielded a fold weaker EC50 than TIM3.18 on human TIM3 of 17 fold.
As to hIgG4 (antibody), the results for the EC50 in assay [1] and in assay [2] were 54.1 mg/mL and 29.3 mg/mL, respectively.
